According to the nanobody polyreactivity screen of Harvey et al. (2022):

Assay: yeast display, Sf9 membrane polyspecificity reagent, FACS + sequencing; frameworks hold sequencing errors
Outline: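 Galactose-induced (36–48 hours) yeast carrying a synthetic nanobody display library were exposed to 10% biotinylated, detergent-solubilized Sf9 membrane reagent at 4 °C for 1 hour. FACS followed streptavidin microbead enrichment, using low and high (top ~1%) gates for expression (anti-HA) and reagent binding (streptavidin). Colony PCR, MiSeq 2 × 250 sequencing and CDR-length filtering followed. Labels for polyreactivity reflect the gate of origin.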

Sequence	polyreactivity (PSR sort gate)
QVQLVESGGGLVQAGGSLRLSCAASGRSFGLYVMGWYRQAPGKERELVAAITGVGSTKYADSVKGRFTISRDNAKNTVYLQMNSLKPEDTEVYYCAKRYLYDRRHAEYWAANDYWGQGTQVTVSS	low polyreactivity
QVQLVESGGGLVQAGGSLRLSCAAYGSIFGYYAMGWYRQAPVKERALVAAITWSGDSTYYADSVKGRFTISRDNAKNTVYLQMKSLNPEDTAVYYCSARQFVHTRYFSFGYWGQGTQVTVSS	low polyreactivity
QVQLVESGGGLVQAGGSLRLSCAASRFYTMGWYIPAPGKERELVAAISWSGGDTYYADSVKGRYTISRDNAKNTVYLQMNSLKQEDTAVYYCPKKTIGSYVHEPYYYWGQGNQVTVSS	low polyreactivity
QVQLVESGGGLVQAGGSLRLSCAASGRTFYSYVMGWYRQAPGKERELVAAINKTGGGTYYADSVKGRFTISRDNAKNTVYLQMNSLKPEDTAVYYCAAETGTGETRYYRYWDYYYWGQGTQVTVSS	high polyreactivity
QVQLVESGGGLVQAGGSLRLSCAASGSIFRHNAMGWYRQAPGKERELVAAITSRGGSTYYADSVKGRFTISRDNAKNTVYLQMNSLKPEDTAVYYCAAGGHYYSSPGYNYWGQGTQVTVSS	high polyreactivity
QVQLVESGGGLVQAGGSLRISCAASGSTFDPNVMGWYRQAPGKERELVAVITTTGVSTYYADSVKGRFTISRDNAKNTVYLQMNSLKPEETAVYYCNAKWYWYLTRDDFRYRYTYDYWGQGTQVTVSS	low polyreactivity
QVQLQESGSGLVQAGGSLRLGCAASGNISDAGYMGWYRQAPGKEREFVAAIAAGSNTNYADSVKGRFTISRDNAKNTVYLQLNSLKPEVTAVFYCAVASYARVQYEYWGQGTQVTVNS	low polyreactivity
QVQLVESGGGLVQAGGSLRLSCAASGRNFLVYAMGWYRQAPGKERELVAAITYSDGSTYYADSVKGRFTISRDNAKNTVYLQMNSLKPEDTAVYYCAADSSTFPSDYYWGKGTQVTVSS	low polyreactivity
QVQLVESGGGLVQAGGSLRLSCAASGITFLVYAMGWYRQAPGKERELVAAISADAGGTYYADSVKGRFTISRDNAKNTVYLQMNSLKPEDTAVYYCNVDGRSDGDDYWGQGTQVTVSS	low polyreactivity
QVQLVESGGGLVQAGGSLRLSCAASGFTLPVYAMGWYRQAPGKERELVARITWSAGRTYYADSVKGRFTISRDNAKNTGYLQMNSLKPEDTAVYYCAAGPVSQHHSPRPHDYWGQGTQVTVSS	high polyreactivity
QVQHVESGRGLVQAGGSLRLSCAASGITFRYYAMGWYRQAPGKERELVAAISRGTSTKYADSVKGRFTISRDNAKNTVYLQMNSQKPEDTAVYYCAVYGYWSKSDYWGQGTQVTVSS	low polyreactivity
QVQLQESGGGLVQAGGSLRLSCASSGSISILQSMGWYRQAPGKERELVAGINWGATTYYADSVKGRLTTSRDYAKNTVYLQMNSLKPEDTGVYYCAVPTYYTYPLLYWGQGTQVTVSS	low polyreactivity
QVQLVESGGGLVQAGGSLRLSCAASGRTFFGRNVMGWYRPAPGNDRELVAAITSSGASTYYADSVKGRFTISRDNAKNTVYLQMNSLKPEDTAVYYCAAVRYVWQGYDYWGQGTQVTVSS	high polyreactivity
QVQLGESGGVLVQAGGSLRLSCAASGRIFSENAMGWYRQATGKEWELVAAITGNGGDTYYADSVKGRFTISRDTAKNTVYLQMNSLKPEDTAVYYCAAETGGLGGDYWGQGTQVTVSS	low polyreactivity
QVQLVESGGGLVQAGGSLRLSCAASGLIFHQYAMGWYRQAPGKERELVAAITRSGTRTYYADSVKGRFTISRDNAKNTVYLQMNSLKPEDTAVYYCAAADTQGVSMDYWGQGTQVTVSS	high polyreactivity
QVQLVESGGGLVQAGGSLRLSCDASGSTFYVYAMGWYRQAPGKERELVASINSSTSTNYADSVKGRFTISRDNAKNTVYLQMNSLKPEDTAVYYCAADSRVPEYRSPKNDYWGQGTQVTVSS	low polyreactivity
QVQLQESGGGQVQAGGSLRLSCAASGTISDSGLMGWYRQAPGKERELVAGISSGGITNYADSVKGRFTISRDNAKNTVYLQMNILKPEDTAVYWGQGTQVTVSI	low polyreactivity
QVQLVESGGGIDQAGGSLRLSCAASGSTFPRYAMGWYRQAPGKERELVAAISRSGGSTYYADSVKWRFTISRDNAKNTVDLQMNCLKPEDTAVYYCAGRYERGSYKYDYWGQGTEVTVSS	high polyreactivity
QVQHVESGGGLVQAGGSLRLSCAASGLTFSYNAMGWYRQAPAKERELVAAIRSGGSTNYADSVKGRFTISRDNAKNTVYLEMYSLKPVDSAVYFCADKSVTGVFRYYYWGQGSQVTVSS	low polyreactivity
QVQLVESGGGFVQAGGSLRLSCAASGSIFDYYTMGWYRQAPGKERELVATIRSGDSTNYADSVKGRFTISRDNAKNTVYLPMNSLKPEDPAVYYCAADYGYQDDYWGQGTQVTVSS	low polyreactivity
QVQLVESGGGLVQAGGSLRLSCAASGFTFSYNAMGWYRQAPGKERELVAAISSTGTSTYYADSVKGRFTISRDNAKNTVYLQMISLKPEDTAVYYCNAYGYDGYYAGRHGYWGQGTQVTVSS	low polyreactivity
QVQLVESGGGLVQAGGSLRLSCAASGLIFDVNTMGWYRQAPGKERELVAAITGSGGRTYYADSVKGRFTISRDNGKNTVYLQMNSLKPEDTAFYYCNADTSYVGFDYWGQGTQVTVSS	low polyreactivity

Sequence	polyreactivity (PSR sort gate)
QVQLVESGGGLVQAGGSLRLSCAASGFTFHKYAMGWYRQAPGKERELVAAISWSGDRTYYADSVKGRFTISRDNAKNTVYLQMNSLKPEDTAVYYCAAATRYSFYIKYDYWGQGTQVTVSS	high polyreactivity
QVQLVESGGGLVQAGGSLRLSCAASGFTIDNYAMGWYRHSPGKEMEVVAAINWSGDRMYYADSVKGRFTFSRDNAKNTVYLQMNSLKPEDTAVYYCAAPASRSQGPFPGYDYWGQGTQVTVSS	high polyreactivity
QVQLVESGGGLVQAGGSLRLSCAASGFNFRRNAMGWYRQAPGKERELVAVITSSARTNYADSVKGRFTISRDNAKNTVYLQMNSLNPEDTAVYSCNAYRYRQSSSDKYGYWGQGTQVTVSS	high polyreactivity
QVQLVESGGGLVQAGGSLRLSCAASGRTFRYYAMGWYRQAPGKERELVADISSTGRTYYADSVKGRFTISRDNAKNTVYLQMNSLKPEDTAVYYCNADYFFEFDYWGQGTQVTVSS	low polyreactivity
QVQLVESGGGLVQAGGSLRLSCAASGRTIYFNVMGWYRQAPGKERELVAAISGGGSTNYADSVKGRYTISRDNAKNTVYLQMNSLKPEDTAVYYCATGYYSGLIDDYWGQGTQVTVSS	low polyreactivity
QVQLVESGGGLVQAGGSLRLSCAASGFIFAPNAMGWYRQAPGKERELVAAISQSGASTFYADSVKGRFTISRDNAKNTVYFQMNSLKPEDTAVYYCAAPPYYSYDYWGQGTQVTVSS	low polyreactivity
QVQLVESGGCLVQAGGRLRLSCAASGFTFGYYAMGWYIQAPGKERELVAAIDWSGGTTYYADSVKGRFTISRDNAKNTVYLQMNSLKPEDTAVYYCAADVVEEDDLEFYYWGQGTQVTVSS	high polyreactivity
QVQLVESGGGLVQAGGSLRLSCAASGSIFGWYAMGWYRQAPGKERELVAAISSSDGSTYYADSVKGRFTISRDNAKNTVYLQMNSLTPEDTAVYYCAKVYIRQNLAPYGYWGQGTQVTVSS	low polyreactivity
QVQLVESGGGLVQAGGSLRLSCAASGRTFWYYTMGWYRQAPGKERELVAAISRSGGSTYYADSVKGRFTISRDNAKNTVYLQMNSLKPEDSAVYFCAAGVQSSVYPYYRFDYWGQGTQVTVSS	high polyreactivity
QVQIVESGGGLVQAGGSLRLSCAASGSIFSGYVMGWYRQAPGKERELVAAITWSGGRTYYADSVKGRFTISRDNAKNTVYLQMNSLKPEDTAVYYCAKRKIKSSGYYYWGQGTQVTVSS	high polyreactivity
QVQLVESGGGLVQAGGSLRLSCAASGRIFQGFAMGGYRQAPGKERELVAAISSGGRTYYADSVKGRFTISRDNAKNTVYLQMNSLKPEDTAVYYCAARSPKANGLQRFDYWGQGSQVTVSS	high polyreactivity
QVQLVESGGGLVQAGGSLRLSSAASGRTGVNAMGWDRHAPGKERELGAAINNGDSTYYADSVKGRFTISRDNAKNTVYLQMNSLTPEDTAVYDCAAGLDEGDYWQESDYWGQGTQVTVSS	low polyreactivity
QVQLVESGGGLVQAGGSLRLSCAASGRIFYTYAMGWYRTAPGKERELVAAISSRTGSTYYADSVKWRFTISRDNAKNTVYLQMNSLKPEDTAVYYCNAYRLRYGYDYWGQGTQVTVSS	high polyreactivity
QVQLVESGGGLVEAGGSLRLSCAAYGFIFSHNTMGCYRQAPGKERELVAGISWSGGNTYYSDSVKGRFTISRDNAKNTGYLQMNRLKPEDTAVYSFNVRFVTGYRYRYGDDYWGQGTQVTVSS	low polyreactivity
QVQLVESGGGLVQAGGSLRLSCAASGFIFRRYAMGWYRQAPGKERELVAAISGSGGRTYYADSVKGRFTISRDNAKNTVYLQMNSLKPEDTAVYYCAATYQYLKSGYYWGQGTQVTVSS	high polyreactivity
QVQLVESGGGLVQAGGSLRFSCAASGITFVDYAMGWYRQAPGKEREFVAGISESGGSTYYADSVKGRFTISRDNAKNTVYLQMNSLKPEDTAVYYCAADPYVDSYDSWGQGTQVTVSS	low polyreactivity
QVQLVESGGGLVQAGGSLRLSCAASGRIFIYNAMGWYRQAPGKERELVAAISSGGDTYYADSVKGRFTISRDNAKNTVYLQMNSLKPEDSAVYYCAATFVVKGTRFGYWGQGTQVTVSS	high polyreactivity
QVQLVESGGGLVQAGGSLRLSCAASGRIFRLYAMGWYRQAPGKERELVAAISFSGSRTYYADSVKGRFTISRDNAKNNVYLQMNSLQPEDTAVYYCNKDHYVRYGLDYWGQGTQVTVSS	high polyreactivity
QVQLVESGGGLVQAGGSLRLSCAASGSTFWNNAMGWYRQAPGKERELVAVINSSGGSTYYADSVKGRFTISRDNAKNTVYLQMNSLKPEDTAVYYCNADATDSYPEKDEHDSWGQGTQVTVSS	low polyreactivity
QVQLVESGGGLVQAGGSLRLSCAASGFIFYNYAMGWYRQAPGKERELVAAITGGGSTNYADSVKGRLTISRDNPKNTVYLQMNSLKPEDTAVYYCAAEEGPPWSRYDYWGQGTQVTVSS	low polyreactivity
QVQLEESGGGLVQAGGSLRLSCAASGRIFGYYAMGWYRQAPGKERELVATITFGGGSTYYADSVKGRFTISRDNAKNTVYLQMNSLKPEDTAVYYCAADSGYLGIYGDEYSWGQGTQVTVSS	low polyreactivity
